B1: Methylglyoxal reductase (YghZ) (enzyme, Escherichia coli, UniProt Q46851 1-346, looked up)
chain: MVWLANPERYGQMQYRYCGKSGLRLPALSLGLWHNFGHVNALESQRAILRKAFDLGITHFDLANNYGPPPGSAEENFGRLLREDFAAYRDELIISTKAGYDMWPGPYGSGGSRKYLLASLDQSLKRMGLEYVDIFYSHRVDENTPMEETASALAHAVQSGKALYVGISSYSPERTQKMVELLREWKIPLLIHQPSYNLLNRWVDKSGLLDTLQNNGVGCIAFTPLAQGLLTGKYLNGIPQDSRMHREGNKVRGLTPKMLTEANLNSLRLLNEMAQQRGQSMAQMALSWLLKDDRVTSVLIGASRAEQLEENVQALNNLTFSTKELAQIDQHIADGELNLWQASSDK
notes: methylglyoxal reductase YghZ, Escherichia coli, native source protein; identified from the electron density after molecular replacement; source: purified from E. coli DH5α cells (heparin sepharose, phenyl sepharose, MonoQ)
B2: MoaB (molybdopterin biosynthesis protein B) (natural protein, Escherichia coli, UniProt P0AEZ9 1-170, looked up)
chain: MSQVSTEFIPTRIAILTVSNRRGEEDDTSGHYLRDSAQEAGHHVVDKAIVKENRYAIRAQVSAWIASDDVQVVLITGGTGLTEGDQAPEALLPLFDREVEGFGEVFRMLSFEEIGTSTLQSRAVAGVANKTLIFAMPGSTKACRTAWENIIAPQLDARTRPCNFHPHLKK
notes: MoaB, molybdopterin biosynthesis protein B, Escherichia coli, native source protein; identified with PDB 1R2K; the PDB entry is the previously deposited structure that identified the protein; the crystallised protein is the native one; source: purified from E. coli DH5α cells (whole-proteome fractionation)
B3: phosphoserine aminotransferase (enzyme, Escherichia coli, UniProt P23721 1-362, looked up)
chain: MAQIFNFSSGPAMLPAEVLKQAQQELRDWNGLGTSVMEVSHRGKEFIQVAEEAEKDFRDLLNVPSNYKVLFCHGGGRGQFAAVPLNILGDKTTADYVDAGYWAASAIKEAKKYCTPNVFDAKVTVDGLRAVKPMREWQLSDNAAYMHYCPNETIDGIAIDETPDFGADVVVAADFSSTILSRPIDVSRYGVIYAGAQKNIGPAGLTIVIVREDLLGKANIACPSILDYSILNDNGSMFNTPPTFAWYLSGLVFKWLKANGGVAEMDKINQQKAELLYGVIDNSDFYRNDVAKANRSRMNVPFQLADSALDKLFLEESFAAGLHALKGHRVVGGMRASIYNAMPLEGVKALTDFMVEFERRHG
notes: phosphoserine aminotransferase, Escherichia coli, native source protein; identified with PDB 1BJN; the PDB entry is the previously deposited structure that identified the protein; the crystallised protein is the native one; source: purified from E. coli DH5α cells (whole-proteome fractionation)
B4: Glucose-6-phosphate isomerase (pGI) (enzyme)
chain: not shown
notes: glucose-6-phosphate isomerase, Escherichia coli, native source protein; also called phosphoglucose isomerase; source: purified from E. coli DH5α cells (CaptoQ, phenyl sepharose, MonoQ)
B5: heat shock protein 31 (HSP31) (natural protein, Escherichia coli, UniProt P31658 1-283, looked up)
chain: MTVQTSKNPQVDIAEDNAFFPSEYSLSQYTSPVSDLDGVDYPKPYRGKHKILVIAADERYLPTDNGKLFSTGNHPIETLLPLYHLHAAGFEFEVATISGLMTKFEYWAMPHKDEKVMPFFEQHKSLFRNPKKLADVVASLNADSEYAAIFVPGGHGALIGLPESQDVAAALQWAIKNDRFVISLCHGPAAFLALRHGDNPLNGYSICAFPDAADKQTPEIGYMPGHLTWYFGEELKKMGMNIINDDITGRVHKDRKLLTGDSPFAANALGKLAAQEMLAAYAG
notes: Hsp31, Escherichia coli, native source protein; identified with PDB 1N57; the PDB entry is the previously deposited structure that identified the protein; the crystallised protein is the native one; source: purified from E. coli DH5α cells (whole-proteome fractionation)
B6: 5-keto-4-deoxyuronate isomerase (enzyme, Escherichia coli, UniProt Q46938 1-278, looked up)
chain: MDVRQSIHSAHAKTLDTQGLRNEFLVEKVFVADEYTMVYSHIDRIIVGGIMPITKTVSVGGEVGKQLGVSYFLERRELGVINIGGAGTITVDGQCYEIGHRDALYVGKGAKEVVFASIDTGTPAKFYYNCAPAHTTYPTKKVTPDEVSPVTLGDNLTSNRRTINKYFVPDVLETCQLSMGLTELAPGNLWNTMPCHTHERRMEVYFYFNMDDDACVFHMMGQPQETRHIVMHNEQAVISPSWSIHSGVGTKAYTFIWGMVGENQVFDDMDHVAVKDLR
notes: 5-keto-4-deoxyuronate isomerase, Escherichia coli, native source protein; identified with PDB 1XRU; the PDB entry is the previously deposited structure that identified the protein; the crystallised protein is the native one; source: purified from E. coli DH5α cells (whole-proteome fractionation)
B7: Glutamate dehydrogenase (GDH) (enzyme, Escherichia coli, UniProt P00370 1-447, looked up)
chain: MDQTYSLESFLNHVQKRDPNQTEFAQAVREVMTTLWPFLEQNPKYRQMSLLERLVEPERVIQFRVVWVDDRNQIQVNRAWRVQFSSAIGPYKGGMRFHPSVNLSILKFLGFEQTFKNALTTLPMGGGKGGSDFDPKGKSEGEVMRFCQALMTELYRHLGADTDVPAGDIGVGGREVGFMAGMMKKLSNNTACVFTGKGLSFGGSLIRPEATGYGLVYFTEAMLKRHGMGFEGMRVSVSGSGNVAQYAIEKAMEFGARVITASDSSGTVVDESGFTKEKLARLIEIKASRDGRVADYAKEFGLVYLEGQQPWSLPVDIALPCATQNELDVDAAHQLIANGVKAVAEGANMPTTIEATELFQQAGVLFAPGKAANAGGVATSGLEMAQNAARLGWKAEKVDARLHHIMLDIHHACVEHGGEGEQTNYVQGANIAGFVKVADAMLAQGVI
notes: glutamate dehydrogenase, Escherichia coli, native source protein; hexamer (dimer of trimers); source: purified from E. coli DH5α cells (CaptoQ, phenyl sepharose, MonoQ)
B8: 6-phospho-beta-glucosidase (BglA) (enzyme, Escherichia coli, UniProt Q46829 1-479, looked up)
chain: MIVKKLTLPKDFLWGGAVAAHQVEGGWNKGGKGPSICDVLTGGAHGVPREITKEVLPGKYYPNHEAVDFYGHYKEDIKLFAEMGFKCFRTSIAWTRIFPKGDEAQPNEEGLKFYDDMFDELLKYNIEPVITLSHFEMPLHLVQQYGSWTNRKVVDFFVRFAEVVFERYKHKVKYWMTFNEINNQRNWRAPLFGYCCSGVVYTEHENPEETMYQVLHHQFVASALAVKAARRINPEMKVGCMLAMVPLYPYSCNPDDVMFAQESMRERYVFTDVQLRGYYPSYVLNEWERRGFNIKMEDGDLDVLREGTCDYLGFSYYMTNAVKAEGGTGDAISGFEGSVPNPYVKASDWGWQIDPVGLRYALCELYERYQRPLFIVENGFGAYDKVEEDGSINDDYRIDYLRAHIEEMKKAVTYDGVDLMGYTPWGCIDCVSFTTGQYSKRYGFIYVNKHDDGTGDMSRSRKKSFNWYKEVIASNGEKL
notes: 6-phospho-beta-glucosidase BglA, Escherichia coli, native source protein; source: purified from E. coli DH5α cells (CaptoQ, phenyl sepharose, MonoQ)

Key:
[1] = target: the molecule itself; experiment: crystal structure; novel structures of native source E. coli proteins, solved by molecular replacement and refined; oligomer seen in the crystal
[2] = target: the molecule itself; experiment: crystal structure; native source E. coli proteins already in the PDB, identified and solved by brute-force molecular replacement, not refined except to confirm the solution; oligomer seen in the crystal

Row | Protein | stoichiometry N [1] | binding result [2]
1 | B1 | 4 | 
2 | B2 |  | binds
3 | B3 |  | binds
4 | B4 | 2 | 
5 | B5 |  | binds
6 | B6 |  | binds
7 | B7 | 6 | 
8 | B8 | 2 | 

Reference: PMC3290569, “Macro-to-Micro Structural Proteomics: Native Source Proteins for High-Throughput Crystallization” (PLoS ONE, 2012)
